Target: PAR-5 (UniProt P41932)
Experiment: IP anti-GFP, blot anti-PAR-5
Conditions: reference: wild type ATGL-1::GFP; sites S303

**Q.** With “ATGL-1 (from UniProt Q11186) ATGL-1(S303A)::GFP” as the substance, how does the “binding against the reference” value read?
**A.** Its value is “weaker”.
